Patent US9937129B2, “Materials and methods for delivering compositions to selected tissues” (The Regents of the University of California, priority 2007, dated 2018)

Key:
[1] = Spontaneous adsorption and concentration of bevacizumab in porous SiO2; assay type: physicochemical; details: 0.125 mg/mL solution
Description: The affinity of a porous Si particle for a particular molecule can be controlled with surface chemistry. The surface of oxidized porous Si has a point of zero charge at a pH of around 2, and so it presents a negatively charged surface to most aqueous solutions of interest. At the appropriate pH, porous SiO2 spontaneously adsorbs positively charged proteins such as serum albumin, fibrinogen, protein A, immunoglobulin G (IgG), or horseradish peroxidase, concentrating them in the process. For example, a 0.125 mg/mL solution of the monoclonal antibody bevacizumab (trade name Avastin, an anti-cancer drug) spontaneously concentrates in suitably prepared porous SiO2 by a factor of >100.

[2] = in vivo; cited from earlier work
[3] = cited from earlier work

**Q.** Which “Concentration factor in suitably prepared porous SiO2” value [1] does the source give for bevacizumab [Avastin] here?
**A.** > 100 factor

**Q.** What about the “Vitreous half-life of free drug” value [2] of the same substance?
**A.** 120 h

**Q.** And the IC50 [3]?
**A.** 0.022 µg/mL

**Q.** And the Therapeutically relevant dose ([3]; intraocular)?
**A.** > 22 ng/mL
